The target of one test is T1, CeiPGM-γCp(RSS) (synthetic construct, thioether N-14).
T1 chain: {γCp(RSS)}-FSISGIEWNGPEIC
In words: SPR.

Another test concerns the target T2, CeiPGM-γCp(SRR) (synthetic construct, thioether N-14).
T2 chain: {γCp(SRR)}-FSISGIEWNGPEIC
Description: SPR. On the technique in general: Surface plasmon resonance follows binding to a sensor surface in real time, without labels.

Among the data in publication PMC9547493 (2020) are Kd values, retold here.

A word on the Kd: it is the equilibrium constant for the complex coming apart.

Bridge positions count the residues as written; N and C are the ends. Ends that are not written are not given here. γCp(RSS) = N-terminal (R,S,S)-cyclopropane γ-amino acid; γCp(SRR) = N-terminal (S,R,R)-cyclopropane γ-amino acid

B1: CeiPGM (cofactor-independent phosphoglycerate mutase) (protein)
chain: MFVALGAQIYRQYFGRRGMAMANNSSVANKVCLIVIDGWGVSEDPYGNAILNAQTPVMDKLCSGNWAQIEAHGLHVGLPEGLMGNSEVGHLNIGAGRVIYQDIVRINLAVKNNKFVTNESLVDACDRAKNGNGRLHLAGLVSDGGVHSHIDHMFALVKAIKELGVPELYLHFYGDGRDTSPNSGVGFLEQTLEFLEKTTGYGKLATVVGRYYAMDRDNRWERINVAYEAMIGGVGETSDEAGVVEVVRKRYAADETDEFLKPIILQGEKGRVQNDDTIIFFDYRADRMREISAAMGMDRYKDCNSKLAHPSNLQVYGMTQYKAEFPFKSLFPPASNKNVLAEWLAEQKVSQFHCAETEKYAHVTFFFNGGLEKQFEGEERCLVPSPKVATYDLQPEMSAAGVADKMIEQLEAGTHPFIMCNFAPPDMVGHTGVYEAAVKACEATDIAIGRIYEATQKHGYSLMVTADHGNAEKMKAPDGGKHTAHTCYRVPLTLSHPGFKFVDPADRHPALCDVAPTVLAIMGLPQPAEMTGVSIVQKI
In the case of B1, the Kd with CeiPGM-γCp(RSS) was 0.3 nM; in the test with CeiPGM-γCp(SRR), 0.8 nM.
